Experimental data as given in patent US20150004133A1, “Compositions And Methods For Treating Steatohepatitis, Liver Fibrosis, and Hepatocellular Carcinoma (HCC)” (The Regents of the University of California, priority 2013, published 2015).

Columns and labels:
primary murine HSCs = assay: Collagen-α1(I)-GFP expression in primary HSCs from Col-GFP reporter mice; assay type: cell-based, mouse; settings: 48 hours; for expression of GFP (percent of cells upregulated collagen-α1(I)-GFP): IL-17A 10 ng/ml
Excerpt: (§1) FIG. 9. […] Representative images are shown using ×20 objective. […] Deletion of Stat3 in HSCs was achieved by crossing GFAP-Cre mice×floxed Stat3^f/f mice=GFAP^Stat3−/− mice. […] Nuclear translocation of Stat3 (but not phosphor-Smad2/3) was detected in wild type HSCs but not in Stat3-deficient HSCs. Representative images are shown using ×20 objective. (E) IL-17-dependent collagen-α1(I) expression is impaired in Stat3-deficient HSCs.
For this purpose, primary HSCs were isolated from Col-GFP reporter mice (expressing GFP under collagen-α1(I) promoter) or Col-GFP^IL-17RA−/− mice (generated by crossing IL-17RA^−/− mice with Col-GFP mice, FIG. 9B).

Stat3 = assay: Nuclear translocation of Stat3 in HSCs (fluorescent microscopy); assay type: cell-based, mouse; settings: primary murine HSCs, IL-17A 10 ng/ml
Excerpt: as §1
Next, phosphorylation of IL-17 target proteins in KC and HSCs was assessed in vitro (FIG. 18E). […] While the IL-17 signaling pathway in macrophages is characterized^8,22 (and FIG. 18F), IL-17 signaling in HSCs is unknown. […] Thus, similar to macropahges^8,22, NF-κB and Stat3 are downstream targets of IL-17 signaling in HSCs. While NF-κB signaling is required for survival of activated HSC^23, Stat3 may mediate HSC activation by stimulating collagen production.

[1] = system: primary wild type HSCs and Stat3-deficient HSCs; assay: IL-17A-dependent collagen-α1(I) expression in wild type and Stat3-deficient HSCs; assay type: cell-based, mouse; settings: IL-17A 10 ng/ml, 8 h
Excerpt: as §1
HSCs are the only liver cell type that expresses GFAP^1. The role of Stat3 in IL-17A-mediated collagen-α1(I) expression was tested in primary wild type HSCs and Stat3-deficient HSCs, isolated from GFAP^Stat3−/− mice (GFAP^Cre mice×floxed Stat3^f/f mice, FIG. 9D). […] Next, the relevance of IL-17 signaling was accessed in human HSC cell lines.

BDL-operated mice = assay: BDL-induced liver fibrosis in mice with daily administration of IL-22 or IL-17E; assay type: in vivo; settings: 0.5 μg/mouse daily for 7 days, compared to BDL wt mice+PBS
Method: FIG. 11. IL-23 and IL-22 have opposing roles in liver fibrosis. […] Quantification of Sirius Red and α-SMA staining, mRNA expression is shown (p<0.05, compared to BDL wt mice). mRNA expression is fold induction compared to oil-control Wt→wt mice. (D) The percent of inhibition of liver fibrosis was calculated for BM chimeric mice in response to liver injury (in comparison Wt→wt mice, 100%, p<0.01) based on Sirius Red and α-SMA expression. […] Increased fibrosis was detected in IL-22^−/−→wt mice. (E) Administration of IL-22 and IL-17E attenuates liver fibrosis. BDL-operated mice were daily treated with IL-22 (0.5 μg/mouse, n=4), IL-17E (0.5 μg/mouse n=5), or vehicle (PBS) for 7 days, tissues were analyzed by Sirius Red, and α-SMA staining; mRNA expression is shown (p<0.05, compared to BDL wt mice+PBS).
Liver injury was induced in mice by […] with CCl4 (1:4 dilution in corn oil, 200 μl×12 injections^2) or by BDL (3 weeks)^2.
The role of IL-22 and IL-17E in liver fibrosis was examined in BDL-operated mice, injected with IL-22 (0.5 μg/mouse) or IL-17E (0.5 μg/mouse, FIG. 11E).

LX-2 human HSC cell line = assay: Fibrogenic gene mRNA induction in the LX-2 cell line (RT-PCR); assay type: cell-based; settings: LX-2, 10 ng/ml, 72 h, compared with non-stimulated cells
Method: RT-PCR and real time quantitative PCR. […] Methods.
mRNA was isolated and RT-PCR was performed using ABI 7000 sequence detection system (Applied Biosystems), specific primers and SYBRGreen. Ct values of each sample were normalized to 18s mRNA expression. Values were expressed as fold induction in comparison with untreated or sham controls.

In the case of “IL-17A: IL-17 family cytokine mainly produced by CD4+ Th17 cells; purchased from R&D”, the “expression of GFP (percent of cells upregulated collagen-α1(I)-GFP)” value (primary murine HSCs; IL-17RA−/− HSCs (Col-GFP IL-17RA−/−)) is reported as 5±2%, the “expression of GFP (percent of cells upregulated collagen-α1(I)-GFP)” value (primary murine HSCs; wild type Col-GFP HSCs, baseline 1±0%) is reported as 34±7% and the “time to nuclear translocation of Stat3 in HSCs” value (Stat3) is reported as 10 to 15 min. The “collagen-α1(I) expression” value ([1]; Stat3-deficient HSCs from GFAP Stat3−/− mice) was “failed to induce” and the “collagen-α1(I) expression” value ([1]; wild type (Stat3f/f) HSCs) was “induced”.

In the case of “TGF-β1: fibrogenic cytokine used as a control; purchased from R&D [reference compound]”, the “expression of collagen-α1(I)-GFP” value (primary murine HSCs; both wild type and IL-17RA−/− HSCs, TGF-β1 3 ng/ml, control) is reported as “strongly induced”.

B1: IL-22: protein that in humans is encoded by the IL22 gene; cytokine purchased from R&D (protein, UniProt Q9GZX6 34-179, looked up)
Interleukin-22: APISSHCRLDKSNFQQPYITNRTFMLAKEASLADNNTDVRLIGEKLFHGVSMSERCYLMKQVLNFTLEEVLFPQSDRFQPYMQEVVPFLARLSNRLSTCHIEGDDLHIQRNVQKLKDTVKKLGESGEIKAIGELDLLFMSLRNACI
B1 was tested, and the “reduction of Sirius Red staining” value (BDL-operated mice) was 3 fold, the “reduction of mRNA for Col-α1(I)” value (BDL-operated mice) was 3 fold and the “reduction of mRNA for α-SMA” value (BDL-operated mice) was 2.5 fold.

B2: IL-17E: Interleukin 25; cytokine that binds to IL-17RA and IL-17RB heterodimers (protein)
chain: YSHWPSCCPSKGQDTSEELLRWSTVPVPPLEPARPNRHPESCRASEDGPLNSRAISPWRYELDRDLNRLPQDLYHARCLCPHCVSLQTGSHMDPRGNSELLYHNQTVFYRRPCHGEKGTHKGYCLERRLYRVSLACVCVRPRVMG
B2 was tested, and the “reduction of Sirius Red staining” value (BDL-operated mice) was 3 fold, the “reduction of mRNA for Col-α1(I)” value (BDL-operated mice) was 3 fold and the “reduction of mRNA for α-SMA” value (BDL-operated mice) was 2.5 fold.

B3: IL-17F: IL-17 family cytokine; purchased from R&D (protein, UniProt Q96PD4 31-163, looked up)
Interleukin-17F: RKIPKVGHTFFQKPESCPPVPGGSMKLDIGIINENQRVSMSRNIESRSTSPWNYTVTWDPNRYPSEVVQAQCRNLGCINAQGKEDISMNSVPIQQETLVVRRKHQGCSVSFQLEKVLVTVGCTCVTPVIHHVQ
With B3 the “induction of Col-α1(I) mRNA” value (LX-2 human HSC cell line) was 7 fold and the “induction of α-SMA mRNA” value (LX-2 human HSC cell line) was 6 fold.
